Results reported in patent publication US20200385482A1 (Dana-Farber, published 2020).

Columns and labels:
[1] = biological target: T1, human PD-L1 (hPD-L1) expressed on transfected 300.19 cells (human, UniProt Q9NZQ7 19-290); assay: FACS, hPD-L1 300.19 cells, assay 1, Ab approx 10 ug/ml
T1 construct: whole, on cells; also called B7H1
Method: (§1) Binding analysis of huPD-L1 antibodies were performed using PD-L1-expressing cells. […] GF1538 and GF1757 antibodies were used as controls: GF1538 is a humanized Ab against hPD-L1, and GF1757 is a humanized Ab against hPD-L2. The secondary antibody utilized was PE-goat anti-human IgG. All values represent mean fluorescence intensity (GMFI), as detected by FACs analysis.

[2] = biological target: T1, human PD-L1 (hPD-L1) expressed on …; assay: FACS, hPD-L1 300.19 cells, assay 2, Ab 1 ug/ml
Method: as §1

[3] = biological target: T1, human PD-L1 (hPD-L1) expressed on …; assay: competition FACS, hPD-L1 300.19 cells, signal = bound hPD-1-mIgG2a, Ab 0.01 ug/ml
Method: (§2) A competitive FACS analysis was performed to characterize the inhibition of hPD1 binding to hPD-L1 by the soluble huPD-L1 antibodies of the present invention. […] In this assay, 50,000 cells expressing hPD-L1 were pre-incubated with the huPD-L1 or control antibodies for 30 minutes at the following concentrations: 10 μg/ml, 1 μg/ml, 0.1 μg/ml and 0.01 μg/ml. […] After 30 minutes of incubation, the cells were washed twice and then analyzed by FACS. MFI values from Table 20 are used to generate a percent inhibition of hPD1 binding with hPD-L1+ cells for FIG. 4.

[4] = biological target: T1, human PD-L1 (hPD-L1) expressed on …; assay: competition FACS, hPD-L1 300.19 cells, signal = bound hPD-1-mIgG2a, Ab approx 10 ug/ml
Method: as §2

[5] = biological target: T1, human PD-L1 (hPD-L1) expressed on …; assay: competition FACS, hPD-L1 300.19 cells, signal = bound hPD-1-mIgG2a, Ab 0.1 ug/ml
Method: as §2

[6] = biological target: T1, human PD-L1 (hPD-L1) expressed on …; assay: FACS, hPD-L1 300.19 cells, assay 2, Ab approx 10 ug/ml
Method: as §1

[7] = biological target: T1, human PD-L1 (hPD-L1) expressed on …; assay: FACS, hPD-L1 300.19 cells, assay 1, Ab 0.1 ug/ml
Method: as §1

[8] = biological target: T1, human PD-L1 (hPD-L1) expressed on …; assay: FACS, hPD-L1 300.19 cells, assay 2, Ab 0.1 ug/ml
Method: as §1

[9] = biological target: T1, human PD-L1 (hPD-L1) expressed on …; assay: FACS, hPD-L1 300.19 cells, assay 1, Ab 0.01 ug/ml
Method: as §1

[10] = biological target: T1, human PD-L1 (hPD-L1) expressed on …; assay: competition FACS, hPD-L1 300.19 cells, signal = bound hPD-1-mIgG2a, Ab 1 ug/ml
Method: as §2

[11] = biological target: T1, human PD-L1 (hPD-L1) expressed on …; assay: FACS, hPD-L1 300.19 cells, assay 1, Ab 1 ug/ml
Method: as §1

[12] = biological target: T1, human PD-L1 (hPD-L1) expressed on …; assay: FACS, hPD-L1 300.19 cells, assay 2, Ab 0.01 ug/ml
Method: as §1

[13] = biological target: T2, full length PD-L1 in the form of paramagnetic proteoliposomes (PMPL) (human, UniProt Q9NZQ7 19-290); assay: phage display panning on PD-L1 proteoliposomes
T2 construct: whole, on cells; Full length protein in proteoliposomes, not on cells; the form 'whole' is meant; also called proteoliposome-coupled-PD-L1
T2 sequence (Q9NZQ7 19-290): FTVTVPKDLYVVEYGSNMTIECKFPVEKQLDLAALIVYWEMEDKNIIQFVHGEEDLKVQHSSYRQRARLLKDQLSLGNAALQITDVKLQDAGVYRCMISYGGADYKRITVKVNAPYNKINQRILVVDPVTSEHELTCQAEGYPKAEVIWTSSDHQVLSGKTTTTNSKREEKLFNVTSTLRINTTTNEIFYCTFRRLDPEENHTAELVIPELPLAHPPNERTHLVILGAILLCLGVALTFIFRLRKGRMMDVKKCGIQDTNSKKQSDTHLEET

T1 sequence (Q9NZQ7 19-290): as above

Binder	Cells PE-A Mean [1]	Cells PE-A Mean [2]	Cells PE-A Mean (bound hPD-1-mIgG2a) [3]	Cells PE-A Mean (bound hPD-1-mIgG2a) [4]	Cells PE-A Mean (bound hPD-1-mIgG2a) [5]	Cells PE-A Mean [6]	Cells PE-A Mean [7]	Cells PE-A Mean [8]	Cells PE-A Mean [9]	Cells PE-A Mean (bound hPD-1-mIgG2a) [10]	Cells PE-A Mean [11]	Cells PE-A Mean [12]	binding result [13]
Ab-42 (antibody, V domains shown, also called huPD-L1 Ab # 42; mAb42) VH: QVQLVQSGAEVKKPGSSVKVSCKASGGTFSSYAISWVRQAPGQGLEWMGGIIPIFGTANYAQKFQGRVTITADKSTSTAYMELSSLRSEDTAVYYCARGRQMFGAGIDFWGPGTLVTVSS VL: NFMLTQPHSVSESPGKTVTISCTRSSGSIDSNYVQWYQQRPGSAPTTVIYEDNQRPSGVPDRFSGSIDSSSNSASLTISGLKTEDEADYYCQSYDSNNRHVIFGGGTKLTVL	53600 MFI	72100 MFI	11800 MFI	139 MFI	3140 MFI	76800 MFI	14900 MFI	49400 MFI	2080 MFI	142 MFI	40900 MFI	11600 MFI	
Ab-30 (antibody, V domains shown, also called huPD-L1 Ab # 30) VH: QVQLVQSGGSVVRPGESLRLSCVASGFIFDNYDMSWVRQVPGKGLEWVSRVNWNGGSTTYADAVKGRFTISRDNTKNSLYLQMNNLRAEDTAVYYCVREFVGAYDLWGQGTTVTVSS VL: QSALTQPASVSGSPGQSITISCTGTSSDVGGYNYVSWYQQHPGKAPKLMIYDVSNRPSGVSNRFSGSKSGNTASLTISGLQAEDEADYYCSSYTSSTLPFGGGTKLTVL	47600 MFI	61200 MFI	11600 MFI	244 MFI	4780 MFI	67300 MFI	17500 MFI	39100 MFI	3510 MFI	661 MFI	37500 MFI	7720 MFI	
Ab-55 (antibody, V domains shown, also called huPD-L1 Ab # 55) VH: QVQLVQSGAEVKKPGASVKVSCKASGYTFTSYGISWVRQAPGQGLEWMGWTSPHNGLTAFAQILEGRVTMTTDTSTNTAYMELRNLTFDDTAVYFCAKVHPVFSYALDVWGQGTLVTVSS VL: NFMLTQPHSVSESPGKTVTISCTRSSGSIASNYVQWYQQRPGSSPTTVIYEDNQRPSGVPDRFSGSIDTSSNSASLTISGLKTKDEADYYCQSYDGITVIFGGGTKLTVL	24400 MFI	26500 MFI	12900 MFI	150 MFI	9140 MFI	42400 MFI	2300 MFI	8910 MFI	543 MFI	3620 MFI	9650 MFI	1760 MFI	
Ab-50 (antibody, V domains shown, also called huPD-L1 Ab # 50) VH: QVQLVQSGGEVKKPGASVKVSCKASGYTLSSHGITWVRQAPGQGLEWMGWISAHNGHASNAQKVEDRVTMTTDTSTNTAYMELRSLTADDTAVYYCARVHAALYYGMDVWGQGTLVTVSS VL: QSVLTQPPSVSVAPGQTARITCGGNNIGSKGVHWYQQKPGQAPVLVVYDDSDRPSGIPERFSGSNSGNTATLTISRVEAGDEADYYCQVWDSSSDHWVFGGGTKLTVL	49400 MFI	63400 MFI	12500 MFI	207 MFI	2800 MFI	69600 MFI	15100 MFI	28700 MFI	2690 MFI	156 MFI	42100 MFI	5200 MFI	
Ab-46 phage-scFv (scFv, V domains shown, not shown: large carriers; small tags and cut ends, also called Ab-46 scFv-phage) VH: EVQLVESGAEVKKPGSSVKVSCKVSGGTFGTYALNWVRQAPGQGLEWMGRIVPLIGLVNYAHNFEGRISITADKSTGTAYMELSNLRSDDTAVYYCAREVYGGNSDYWGQGTLVTVSS VL: NFMLTQPHSVSESPGKTVTISCTRSSGNIGTNYVQWYQQRPGSAPVALIYEDYRRPSGVPDRFSGSIDSSSNSASLIISGLKPEDEADYYCQSYHSSGWEFGGGTKLTVL													binds
Ab-52 (antibody, V domains shown, also called huPD-L1 Ab # 52) VH: QVQLQESGGGVVQPGRSLRLSCSASGFTFSRHGMHWVRQAPGKGLEWVAVISHDGSVKYYADSMKGRFSISRDNSNNTLYLQMDSLRADDTAVYYCARGLSYQVSGWFDPWGQGTLVTVSS VL: NFMLTQPHSVSESPGKTVTISCTRSSGSIASNYVQWYQQRPGSAPTTVIYEDNQRPSGVPDRFSGSIDSSSNSASLTISGLKTEDEADYYCQSYDSTTPSVFGGGTKLTVL	28400 MFI	34900 MFI	11900 MFI	380 MFI	6750 MFI	37200 MFI	5610 MFI	14700 MFI	1070 MFI	2070 MFI	21400 MFI	2690 MFI	
Ab-14 (antibody, V domains shown, also called huPD-L1 Ab # 14) VH: QVQLVQSGAEVKKPGASVKVSCKASGYTFTSYGISWVRQAPGQGLEWMGWISAYNGNTNYAQKLQGRVTMTTDTSTSTAYMELRSLRSDDTAVYYCARALPSGTILVGGWFDPWGQGTLVTVSS VL: NFMLTQPHSVSESPGKTVTISCTRSSGNIASNYVQWYQQRPGSAPTTVIYEDNQRPSGVPDRFSGSIDSSSNSASLTISGLKTEDEADYYCQSYDSSNLWVFGGGTKLTVL	41500 MFI	53200 MFI	15800 MFI	696 MFI	14900 MFI	77900 MFI	8100 MFI	17700 MFI	1650 MFI	12000 MFI	23300 MFI	3700 MFI	
Ab-56 phage-scFv (scFv, V domains shown, not shown: large carriers; small tags and cut ends, also called Ab-56 scFv-phage) VH: EVQLVESGAEVMNPGSSVRVSCRGSGGDFSTYAFSWVRQAPGQGLEWMGRIIPILGIANYAQKFQGRVTITADKSTSTAYMELSSLRSDDTAVYYCARDGYGSDPVLWGQGTLVTVSS VL: NFMLTQPHSVSGSPGKTVTLPCTRSSGSIASHYVQWYQQRPGSAPTTVIYEDNKRPSGVPDRFSGSIDSSSNSASLSISGLKTEDEADYYCQSYDSSNRWVFGGGTKLTVL													binds
Ab-31 (antibody, V domains shown, also called huPD-L1 Ab # 31) VH: QVQLVQSGAEVKKPGATVKVSCKVFGDTFRGLYIHWVRQAPGQGLEWMGGIIPIFGTANYAQKFQGRVTITTDESTSTAYMELSSLRSEDTAVYYCASGLRWGIWGWFDPWGQGTLVTVSS VL: EIVLTQSPATLSLSPGERATLSCRASQSIGNSLAWYQQKPGQAPRLLMYGASSRATGIPDRFSGSGAGTDFTLTISSLEPEDFATYYCQQHTIPTFSFGPGTKVEVK	53800 MFI	71000 MFI	11900 MFI	157 MFI	7930 MFI	76400 MFI	12500 MFI	37700 MFI	2830 MFI	623 MFI	44200 MFI	6830 MFI	
